Consider ten molecules from patent publication US10618964B2, “Nanobody against IL-6R” (Ablynx N.V., dated 2020).

Residue numbers refer to the chain shown, from its start.

Assay [1] has as its target soluble IL-6R in cynomolgous plasma (cynomolgus monkey, UniProt A0A2K5WN54). As to the kind of experiment: ELISA 2, periplasmic extract; competitor IL-6; cyno plasma. On the procedure: (§1) In this ELISA, plasma was used as a source of native soluble IL-6R. By this assay, we aimed to confirm the alphascreen results and to get a view on the cross-reactivity of the clones towards cynomolgous IL-6R. Human plasma (ELISA 1 and ELISA 3) or cynomolgous plasma (ELISA 2) were pre-incubated with a dilution of the periplasmic extract of the clones together with human IL-6 (50 ng/mL). Subsequently, plasma soluble IL-6R was captured on a B-N12 coated plate and bound IL-6 was detected using anti-IL-6 antibody BAF206 and streptavidin-HRP (ELISA 1 and ELISA 2). The ELISA signal dropped when the Nanobody clone could compete with IL-6 for binding to soluble IL-6R. ELISA 3 was a parallel ELISA in which the detection antibody was replaced by anti-IL-6R antibody BAF227 to exclude false positive competitors, which actually compete with B-N12 (e.g. family 2). Depicted in Table C-5 is the ratio of the OD450 value of the test sample versus the blank OD450 (mock sample). Clones were ordered based on ELISA 1 data.
For orientation: ELISA stands for enzyme-linked immunosorbent assay.

Assay [2] has as its target T1, native soluble IL-6R in human plasma (human, UniProt P08887). As to the kind of experiment: ELISA 1, periplasmic extract; competitor IL-6; human plasma. How it is done:
as §1

For assay [3], the target named is T1, native soluble IL-6R in human plasma. As to the kind of experiment: ELISA 3, periplasmic extract; competitor BN-12; human plasma. On the procedure:
as §1

B1: IL6RPMP120C11 (VHH)
VHH: EVQLVESGGGLVQAGGSLSLSCATSGRTISDDTMAWFRQAPGKEREFVATITFSGARTHYSDSVRDRFTISRDNAKNTVYLQMNSLKSEDTAVYYCAASTKYYSSTYNYIHPAFYDIWGQGTQVTVSS
As to B1, the OD450 ratio sample/blank was determined as 0.296 in assay [1], 0.673 in assay [2] and 0.988 in assay [3].

B2: IL6RPMP120B7 (VHH)
VHH: B1 VHH
On to B2, for which the OD450 ratio sample/blank stood at 0.299 in assay [1], 0.714 in assay [2] and 1.03 in assay [3].

B3: IL6RPMP101D2 (VHH)
VHH: EVQMVESGGGLVQAGGSLRLSCAASGFAFDDYAIGWFRQAPGKEREGVSSISSSNGNTYYADSVRGRFTISSDNAKNTVYLQMNSLKPEDAGVYYCAAIWGIFFNEKMPVGAYDYWGQGTQVTVSS
In the case of B3, the OD450 ratio sample/blank in assay [1] came to 0.822; in assay [2] it was 0.124; in assay [3], 0.977.

B4: IL6RPMP101H3 (VHH)
VHH: B3 VHH with M4L, A91T
Take B4: the values for the OD450 ratio sample/blank in assay [1], in assay [2] and in assay [3] were 0.859, 0.772 and 0.954, respectively.

B5: IL6RPMP105E11 (VHH)
VHH: B3 VHH with M4L, S85G, A91T
B5: the OD450 ratio sample/blank was determined as 0.691 in assay [1], 0.679 in assay [2] and 0.971 in assay [3].

B6: IL6RPMP101E1 (VHH)
VHH: B3 VHH with M4L, A91T
For the molecule B6, the values for the OD450 ratio sample/blank in assay [1], in assay [2] and in assay [3] were 0.805, 0.716 and 0.947, respectively.

B7: IL6RPMP101F3 (VHH)
VHH: B3 VHH with M4L, A91T
As for B7, the OD450 ratio sample/blank in assay [1] amounted to 0.822; in assay [2], 0.758; in assay [3], 0.984.

B8: IL6RPMP101F1 (VHH)
VHH: B3 VHH with M4L, A91T
On to B8, for which the OD450 ratio sample/blank in assay [1] is 0.829; in assay [2], 0.754; in assay [3], 0.957.

B9: IL6RPMP108D2 (VHH)
VHH: EVQLVESGGGLVQAGGSLRLSCAASGFTFDDYDIGWFRQAPGKEREGVSGISSSDGNTYYADSVKGRFTISSDNAKNTVYLQMNSLKPEDTAVYYCAAEPPDSSWYLDGSPEFFKYWGQGTQVTVSS
Consider B9, for which the results for the OD450 ratio sample/blank in assay [1], in assay [2] and in assay [3] were 0.345, 0.0624 and 0.916, respectively.

B10: IL6RPMP100A10 (VHH)
VHH: EVQLVESGGGLVQAGGSLRLSCAASGRGFSPYTMGWFRQAPGKERVFVAGISWSTGIAHYTDSVKGRFTISRDNAKNTGSLQMNSLKPEDTAVYYCAVVQTTKGNYDYWGQGTQVTVSS
With B10, the OD450 ratio sample/blank amounted to 0.189 in assay [1], 0.748 in assay [2] and 0.97 in assay [3].
